Test results published in patent US20200199576.

How the values were obtained:
[1] = biological target: T1, xUbcH7 (human), R5E, K9E
T1 chain: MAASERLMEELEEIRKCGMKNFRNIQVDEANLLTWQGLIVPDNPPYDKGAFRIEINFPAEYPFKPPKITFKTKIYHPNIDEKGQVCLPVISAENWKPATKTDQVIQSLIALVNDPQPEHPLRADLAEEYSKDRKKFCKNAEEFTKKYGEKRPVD

[2] = biological target: wt UbcH7 (human E2)

B1: HECT domain of wt Smurf1 (protein)
chain: YERDLVQKLKVLRHELSLQQPQAGHCRIEVSREEIFEESYRQIMKMRPKDLKKRLMVKFRGEEGLDYGGVAREWLYLLCHEMLNPYYGLFQYSTDNIYMLQINPDSSINPDHLSYFHFVGRIMGLAVFHGHYINGGFTVPFYKQLLGKPIQLSDLESVDPELHKSLVWILENDITPVLDHTFCVEHNAFGRILQHELKPNGRNVPVTEENKKEYVRLYVNWRFMRGIEAQFLALQKGFNELIPQHLLKPFDQKELELIIGGLDKIDLNDWKSNTRLKHCVADSNIVRWFWQAVETFDEERRARLLQFVTGSTRVPLQGFKALQGSTGAAGPRLFTIHLIDANTDNLPKAHTCFNRIDIPPYESYEKLYEKLLTAVEETCGFAVE
HECT auto-ubiquitination with xUB, reducing gel [1]: the R5E and K9E mutants in the N-terminal helix of xUbcH7 interfered with the transfer of xUB to wt HECT E3s such as E6AP, Nedd4, Smurf1, and Smurf2 | HECT auto-ubiquitination with wt UB, reducing gel [2]: HECT domains of wt E6AP, Nedd4, Smurf1 and Smurf2 can be loaded with wt UB through the wt Uba1-UbcH7 pair
